The data set is described as follows: Thioflavin T fluorescence of protein solutions. In kind it is physicochemical. Conditions: initial, compared with native β2GPI purified from plasma. The procedure: Fluorescence of ThT—protein/peptide adducts was measured as follows. […] Fluorescence was measured at 485 nm upon excitation at 435 nm. Background signals from buffer, buffer with ThT and protein/peptide solution without ThT were subtracted from corresponding measurements with protein solution incubated with ThT. Regularly, fluorescence of Aβ was used as a positive control, and fluorescence of FP10, a non-amyloid fibrin fragment^16, was used as a negative control. Fluorescence was measured in triplicate on a Hitachi F-4500 fluorescence spectrophotometer (Ltd., Tokyo, Japan).
Formulated protein therapeutics were obtained from the local hospital pharmacy and were used as supplied by the manufacturers. […] Lyophilized therapeutics were dissolved according to the manufacturers recommendations. GH, zinc-insulin, Cealb and gelatin were stored at −20, 4, room temperature, 37 and 65° C. Other protein therapeutics were only kept at 4° C., and assayed for the presence of cross-β structure at shown time points. Enhancement in fluorescence of ThT and Congo red was measured with all formulated protein therapeutics. […]
ThT fluorescence of β2GPI was measured as follows. […] In the ThT fluorescence assay, fluorescence of β2GPI in buffer, of CL or DXS500k in buffer, of buffer and ThT alone, and of β2GPI-CL adducts and β2GPI-DXS500k adducts, with or without ThT, was recorded as described above (section ThT fluorescence). In addition, TEM images were recorded with CL, β2GPI from human plasma, with or without CL, and with recombinant β2GPI, as described^5.
To prepare structurally altered ovalbumin (OVA) with amyloid cross-β structures, purified OVA (Sigma, A-7641, lot 071k7094) was heated to 85° C. […] Native OVA (nOVA) and heat-denatured OVA (dOVA) were tested in the ThT fluorescence assay and in the Plg-activation assay. In the fluorescence assay and in the Plg-activation assay, 25 and 100 μg ml^−1 nOVA and dOVA were tested, respectively. […]
MSA (#126674, Calbiochem) was dissolved in 8 M urea, 100 mM Tris-HCl pH 8.2, at 10 mg ml^−1 final concentration. […] The presence of aggregates or fibrils was analyzed using TEM. […]

B1: recombinant β2GPI: recombinant human β2-glycoprotein I made using insect cells (protein)
chain: GRTCPKPDDLPFSTVVPLKTFYEPGEEITYSCKPGYVSRGGMRKFICPLTGLWPINTLKCTPRVCPFAGILENGAVRYTTFEYPNTISFSCNTGFYLNGADSAKCTEEGKWSPELPVCAPIICPPPSIPTFATLRVYKPSAGNNSLYRDTAVFECLPQHAMFGNDTITCTTHGNWTKLPECREVKCPFPSRPDNGFVNYPAKPTLYYKDKATFGCHDGYSLDGPEEIECTKLGNWSAMPSCKASCKVPVKKATVVYQGERVKIQEKFKNGMLHGDKVSFFCKNKEKKCSYTEDAQCIDGTIEVPKCFKEHSSLAFWKTDASDVKPC
As to B1, the ThT fluorescence signal entry is “higher ThT fluorescence signal than native β2GPI purified from plasma”.
